B1: NR2F2 (parent)
chain: VAHVESLQEKSQCALEEYVRSQYP

The results in this text go back to the supplement of paper PMC10567573.
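Note: lentivirally expressed fusions sorted by FACS into six bins by GFP to DsRed ratio, PSI derived from sequencing read proportions per bin multiplied by bin number.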

In this data set the parent is B1. Nature of the data set: protein stability index of a GFP-peptide fusion (GPS, HEK-293T) (PSI 1-6); higher = more stable. The following applies: c terminus: a fixed tail appended.
Take VAHVESLQEKSQCALEEYVMSQYP [R20M]: the protein stability index worked out at 3.19.

In the case of VAHVESLQEKSQCALEEYVASQYP [R20A], the protein stability index was 3.49.

With VAHVESLQEKSQCALEEYVTSQYP [R20T], the protein stability index was determined as 3.72.

Take VAHVESLQEKSQCALEEYVGSQYP [R20G]: the protein stability index was determined as 4.17.

Consider VAHVESLQEKSQCALEEYVSSQYP [R20S], for which the protein stability index came out at 3.65.

On to VAHVESLQEKSQCALEEYVHSQYP [R20H], for which the protein stability index stood at 3.86.

VAHVESLQEKSQCALEEYVESQYP [R20E]: the protein stability index was 4.51.

With VAHVESLQEKSQCALEEYVPSQYP [R20P], the protein stability index came to 4.16.

As to VAHVESLQEKSQCALEEYVFSQYP [R20F], the protein stability index came out at 2.71.

For the variant VAHVESLQEKSQCALEEYVKSQYP [R20K], the protein stability index turned out to be 4.18.

On to VAHVESLQEKSQCALEEYVDSQYP [R20D], for which the protein stability index was 4.71.

As for VAHVESLQEKSQCALEEYVWSQYP [R20W], the protein stability index was 2.56.

For VAHVESLQEKSQCALEEYVVSQYP [R20V], the protein stability index stood at 3.72.

For VAHVESLQEKSQCALEEYVCSQYP [R20C], the protein stability index was 3.87.

In the case of VAHVESLQEKSQCALEEYVISQYP [R20I], the protein stability index was 3.36.

Take VAHVESLQEKSQCALEEYVQSQYP [R20Q]: the protein stability index turned out to be 4.3.

On to VAHVESLQEKSQCALEEYVLSQYP [R20L], for which the protein stability index was found to be 2.67.

For the variant VAHVESLQEKSQCALEEYVNSQYP [R20N], the protein stability index was found to be 3.14.

Take VAHVESLQEKSQCALIEYVRSQYP [E16I]: the protein stability index was determined as 3.7.

Consider VAHVESLQEKSQCALMEYVRSQYP [E16M], for which the protein stability index worked out at 2.89.

For VAHVESLQEKSQCALKEYVRSQYP [E16K], the protein stability index is 3.7.

For the variant VAHVESLQEKSQCALYEYVRSQYP [E16Y], the protein stability index was 2.11.

Turning to VAHVESLQEKSQCALREYVRSQYP [E16R], the protein stability index was 3.65.

With VAHVESLQEKSQCALSEYVRSQYP [E16S], the protein stability index was found to be 3.37.

In the case of VAHVESLQEKSQCALLEYVRSQYP [E16L], the protein stability index was 3.3.

On to VAHVESLQEKSQCALFEYVRSQYP [E16F], for which the protein stability index was determined as 2.35.

Regarding VAHVESLQEKSQCALVEYVRSQYP [E16V], the protein stability index turned out to be 3.36.

As for VAHVESLQEKSQCALNEYVRSQYP [E16N], the protein stability index is 3.63.

VAHVESLQEKSQCALTEYVRSQYP [E16T]: the protein stability index is 3.29.

Take VAHVESLQEKSQCALDEYVRSQYP [E16D]: the protein stability index is 3.62.

As for VAHVESLQEKSQCALWEYVRSQYP [E16W], the protein stability index turned out to be 2.23.

Turning to VAHVESLQEKSQCALCEYVRSQYP [E16C], the protein stability index was determined as 3.63.

VAHVESLQEKSQCALQEYVRSQYP [E16Q]: the protein stability index was found to be 3.68.

Turning to VAHVESLQEKSQCALGEYVRSQYP [E16G], the protein stability index was 3.21.

VAHVESLQEKSQCALHEYVRSQYP [E16H]: the protein stability index is 3.16.

Turning to VAHVESLQEKSQCALAEYVRSQYP [E16A], the protein stability index turned out to be 3.59.

As for VAHVESLQEKSQCALPEYVRSQYP [E16P], the protein stability index stood at 3.74.

For VAHVESLQEKSQCAYEEYVRSQYP [L15Y], the protein stability index is 4.04.

Turning to VAHVESLQEKSQCALEEYWRSQYP [V19W], the protein stability index came out at 3.06.

With VAHVESLQEKSQCALEEYIRSQYP [V19I], the protein stability index is 3.63.

For VAHVESLQEKSQCALEEYCRSQYP [V19C], the protein stability index came to 3.7.

Regarding VAHVESLQEKSQCALEEYRRSQYP [V19R], the protein stability index stood at 3.85.

Consider VAHVESLQEKSQCALEEYDRSQYP [V19D], for which the protein stability index amounted to 4.26.

Take VAHVESLQEKSQCALEEYPRSQYP [V19P]: the protein stability index amounted to 4.73.

As for VAHVESLQEKSQCALEEYMRSQYP [V19M], the protein stability index was determined as 3.65.

For the variant VAHVESLQEKSQCALEEYERSQYP [V19E], the protein stability index turned out to be 5.1.

Take VAHVESLQEKSQCALEEYKRSQYP [V19K]: the protein stability index turned out to be 4.04.

With VAHVESLQEKSQCALEEYGRSQYP [V19G], the protein stability index was 3.39.

As to VAHVESLQEKSQCALEEYQRSQYP [V19Q], the protein stability index amounted to 4.03.

Take VAHVESLQEKSQCALEEYHRSQYP [V19H]: the protein stability index worked out at 4.24.

As to VAHVESLQEKSQCALEEYSRSQYP [V19S], the protein stability index amounted to 4.08.

VAHVESLQEKSQCALEEYARSQYP [V19A]: the protein stability index was 3.49.

For the variant VAHVESLQEKSQCALEEYLRSQYP [V19L], the protein stability index is 3.17.

For VAHVESLQEKSQCALEEYYRSQYP [V19Y], the protein stability index amounted to 3.56.

For VAHVESLQEKSQCALEEYTRSQYP [V19T], the protein stability index turned out to be 3.67.

VAHVESLQEKSQCALEEYFRSQYP [V19F]: the protein stability index is 3.34.

Take VAHVESLQEKSQCALEEYNRSQYP [V19N]: the protein stability index amounted to 4.13.

For the variant VAHVESLQEKSQCALEWYVRSQYP [E17W], the protein stability index was 2.11.

For VAHVESLQEKSQCALEGYVRSQYP [E17G], the protein stability index worked out at 3.45.

Regarding VAHVESLQEKSQCALEDYVRSQYP [E17D], the protein stability index was 3.44.

For VAHVESLQEKSQCALEIYVRSQYP [E17I], the protein stability index is 2.3.

Consider VAHVESLQEKSQCALEKYVRSQYP [E17K], for which the protein stability index came out at 3.81.

In the case of VAHVESLQEKSQCALERYVRSQYP [E17R], the protein stability index was determined as 3.62.

On to VAHVESLQEKSQCALEPYVRSQYP [E17P], for which the protein stability index was 3.5.

VAHVESLQEKSQCALEMYVRSQYP [E17M]: the protein stability index was determined as 2.58.

As to VAHVESLQEKSQCALEYYVRSQYP [E17Y], the protein stability index was found to be 2.11.

In the case of VAHVESLQEKSQCALESYVRSQYP [E17S], the protein stability index worked out at 3.36.

For the variant VAHVESLQEKSQCALELYVRSQYP [E17L], the protein stability index amounted to 2.49.

Consider VAHVESLQEKSQCALEHYVRSQYP [E17H], for which the protein stability index was found to be 2.76.

On to VAHVESLQEKSQCALENYVRSQYP [E17N], for which the protein stability index stood at 3.08.

On to VAHVESLQEKSQCALECYVRSQYP [E17C], for which the protein stability index came to 2.89.

Regarding VAHVESLQEKSQCALEFYVRSQYP [E17F], the protein stability index is 2.34.

Regarding VAHVESLQEKSQCALEAYVRSQYP [E17A], the protein stability index is 2.12.

For VAHVESLQEKSQCALETYVRSQYP [E17T], the protein stability index worked out at 3.62.

For the variant VAHVESLQEKSQCALEVYVRSQYP [E17V], the protein stability index came to 2.26.

Regarding VAHVESLQEKSQCALEQYVRSQYP [E17Q], the protein stability index stood at 3.27.

For VAHVESLQEKSQCALEEDVRSQYP [Y18D], the protein stability index is 5.05.

On to VAHVESLQEKSQCALEEAVRSQYP [Y18A], for which the protein stability index amounted to 3.97.

Consider VAHVESLQEKSQCALEESVRSQYP [Y18S], for which the protein stability index turned out to be 4.25.

Consider VAHVESLQEKSQCALEEIVRSQYP [Y18I], for which the protein stability index was found to be 3.55.

As to VAHVESLQEKSQCALEEGVRSQYP [Y18G], the protein stability index turned out to be 4.33.

With VAHVESLQEKSQCALEEHVRSQYP [Y18H], the protein stability index is 4.2.

Regarding VAHVESLQEKSQCALEENVRSQYP [Y18N], the protein stability index was 3.91.

As for VAHVESLQEKSQCALEEWVRSQYP [Y18W], the protein stability index was 3.66.

Turning to VAHVESLQEKSQCALEERVRSQYP [Y18R], the protein stability index worked out at 4.26.

For VAHVESLQEKSQCALEETVRSQYP [Y18T], the protein stability index was 4.42.

As for VAHVESLQEKSQCALEEMVRSQYP [Y18M], the protein stability index was 3.93.

Regarding VAHVESLQEKSQCALEEPVRSQYP [Y18P], the protein stability index was found to be 4.43.

Take VAHVESLQEKSQCALEEFVRSQYP [Y18F]: the protein stability index was determined as 3.33.

As to VAHVESLQEKSQCALEELVRSQYP [Y18L], the protein stability index came to 3.01.

Regarding VAHVESLQEKSQCALEEVVRSQYP [Y18V], the protein stability index was determined as 3.75.

Take VAHVESLQEKSQCALEEKVRSQYP [Y18K]: the protein stability index turned out to be 3.94.

Regarding VAHVESLQEKSQCALEECVRSQYP [Y18C], the protein stability index is 3.51.

As to VAHVESLQEKSQCALEEEVRSQYP [Y18E], the protein stability index was found to be 4.7.
